Assay results published in patent US20140087995A1 (published 2014).
Like-named read-outs stand apart in the source and are kept apart here. Values belong to the binder of their own block, whether it stands above or below them. Numbered stars: 1 amine (or outer) side, 2 acyl side, 3 side chain; on linkers, the order of the positions; unused ones are H or OH. Bridge positions count the residues as written; N and C are the ends. Side chains are listed from the residue outwards. Ends that are not written are not given here. * marks the point of attachment. C20 diacid = O=C(O)CCCCCCCCCCCCCCCCCCC(=O)*; γGlu = O=C(O)[C@H](CCC(=O)[*:2])N[*:1]; AEEA = NCCOCCOCC(=O)O

Legend:
[1] = molecular target: T1, human calcitonin receptor (human, UniProt P30988 25-474); experiment: cell-based or functional assay
T1 sequence (looked up): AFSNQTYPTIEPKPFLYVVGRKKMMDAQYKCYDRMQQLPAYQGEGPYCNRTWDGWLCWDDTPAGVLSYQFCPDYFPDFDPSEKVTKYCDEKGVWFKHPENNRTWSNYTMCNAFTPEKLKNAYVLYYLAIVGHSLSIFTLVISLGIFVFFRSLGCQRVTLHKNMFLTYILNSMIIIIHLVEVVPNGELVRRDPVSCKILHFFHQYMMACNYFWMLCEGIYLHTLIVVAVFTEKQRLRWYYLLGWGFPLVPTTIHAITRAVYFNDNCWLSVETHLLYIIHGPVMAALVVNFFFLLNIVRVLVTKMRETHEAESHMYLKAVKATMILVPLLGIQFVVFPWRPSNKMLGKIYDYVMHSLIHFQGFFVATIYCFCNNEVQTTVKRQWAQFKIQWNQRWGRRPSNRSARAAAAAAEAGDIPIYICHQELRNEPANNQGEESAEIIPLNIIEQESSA

[2] = molecular target: T2, human amylin receptor (amylin 3(a) receptor: human calcitonin receptor plus RAMP-3) (human, UniProt P30988 25-474; O60896 24-148); experiment: cell-based or functional assay
T2 sequence (looked up) 1: T1 sequence (looked up)
T2 sequence (looked up) 2: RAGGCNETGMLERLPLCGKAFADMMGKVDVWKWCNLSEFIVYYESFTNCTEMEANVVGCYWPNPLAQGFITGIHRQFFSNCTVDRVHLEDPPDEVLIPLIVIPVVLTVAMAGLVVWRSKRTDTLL

[3] = molecular target: T2, human amylin receptor (amylin 3(a) …); experiment: SPA competition, displacement of 125I-rat amylin from membranes of BHK cells with human calcitonin receptor + RAMP-3 (Assay V)
Protocol: (§1) The binding assay was performed using scintillation proximity assay (SPA) beads (RPNQ0001) from PerkinElmer and cell membranes from the Amylin 3(a)/CRE-luc cells (as described in Assay (II)) were used. Membranes were prepared in the following way; the cells were rinsed with PBS and incubated with Versene for approximately 5 min before harvesting. The cells were flushed with PBS and the cell-suspension was centrifuged for 5 min at 1000 rpm. Cells were homogenized (ultrathurrax) in a buffer containing 20 mM Na-HEPES and 10 mM EDTA (pH 7.4) and centrifuged at 20.000 rpm for 15 min. The resulting pellet was resuspended, homogenized and centrifuged (20.000 rpm, 15 min) in a buffer containing 20 mM Na-HEPES and 0.1 mM EDTA (pH 7.4, buffer 2). The resulting pellet was resuspended in buffer 2 and protein concentration was measured (BCA protein Assay, Pierce). The homogenate was kept cold during the whole procedure. The membranes were kept at −80° C. until use. The assay was performed in a 384 well Optiplate (PerkinElmer) in a total volume of 40 ul. Membranes were mixed with SPA beads. Final concentration of membranes 35 ng/μL final and SPA beads was 0.05 mg/well. Test-compounds were dissolved in DMSO and further diluted in assay buffer (50 mM Hepes, pH 7.4, 1 mM CaCl2, 5 mM MgCl₂, 0.1% OA and 0.02% Tween20). […] The final mixture was incubated with shaking at 400 rpm for 120 min at 25° C. prior to centrifugation (1500 rpm, 10 min). Samples were analyzed on TopCounter™ (Packard). The IC₅₀ was calculated using (one site binding competition analysis) GraphPad Prism5 as a measure of receptor affinity.

[4] = molecular target: T2, human amylin receptor (amylin 3(a) …); experiment: as above; remark: listed apart in the source
Protocol: as §1

[5] = molecular target: T1, human calcitonin receptor; experiment: cell-based or functional assay; remark: listed apart in the source
[6] = molecular target: T2, human amylin receptor (amylin 3(a) …); experiment: cell-based or functional assay; remark: listed apart in the source

hCTR funct. EC50 (pM) [1]: 3120 pM
Ratio hCT/hAmylin funct. [2]: 35
hAmylin-R funct. EC50 (pM) [2]: 89 pM
IC50 [3]: 0.115 nM
IC50 [4]: 0.115 nM
hCTR funct. EC50 (pM) [5]: 3120 pM
Ratio hCT/hAmylin funct. [6]: 35
hAmylin-R funct. EC50 (pM) [6]: 89 pM
B1: N^ε1-[2-[2-[2-[[(4S)-4-carboxy-4-(19-carboxynonadecanoylamino)butanoyl]amino]ethoxy]ethoxy]acetyl]-[Arg17,Pro21,Pro27,Pro31,His35]-h-amylin (peptide)
peptide: K([AEEA-γGlu-C20 diacid])CNTATCATQRLANFLRHSSPNFGAIPSSTPVGSHTY-NH2
modifications: disulfide 2-7; N-terminus assumed
SMILES: CC[C@H](C)[C@H](NC(=O)[C@H](C)NC(=O)CNC(=O)[C@H](Cc1ccccc1)NC(=O)[C@H](CC(N)=O)NC(=O)[C@@H]1CCCN1C(=O)[C@H](CO)NC(=O)[C@H](CO)NC(=O)[C@H](Cc1c[nH]cn1)NC(=O)[C@H](CCCNC(=N)N)NC(=O)[C@H](CC(C)C)NC(=O)[C@H](Cc1ccccc1)NC(=O)[C@H](CC(N)=O)NC(=O)[C@H](C)NC(=O)[C@H](CC(C)C)NC(=O)[C@H](CCCNC(=N)N)NC(=O)[C@H](CCC(N)=O)NC(=O)[C@@H](NC(=O)[C@H](C)NC(=O)[C@@H]1CSSC[C@H](NC(=O)[C@@H](N)CCCCNC(=O)COCCOCCNC(=O)CC[C@H](NC(=O)CCCCCCCCCCCCCCCCCCC(=O)O)C(=O)O)C(=O)N[C@@H](CC(N)=O)C(=O)N[C@@H]([C@@H](C)O)C(=O)N[C@@H](C)C(=O)N[C@@H]([C@@H](C)O)C(=O)N1)[C@@H](C)O)C(=O)N1CCC[C@H]1C(=O)N[C@@H](CO)C(=O)N[C@@H](CO)C(=O)N[C@H](C(=O)N1CCC[C@H]1C(=O)N[C@H](C(=O)NCC(=O)N[C@@H](CO)C(=O)N[C@@H](Cc1c[nH]cn1)C(=O)N[C@H](C(=O)N[C@@H](Cc1ccc(O)cc1)C(N)=O)[C@@H](C)O)C(C)C)[C@@H](C)O
notes: also called compound 57

hCTR funct. EC50 (pM) [1]: 542 pM
Ratio hCT/hAmylin funct. [2]: 20.1
hAmylin-R funct. EC50 (pM) [2]: 27 pM
IC50 [3]: 0.396 nM
IC50 [4]: 0.396 nM
hCTR funct. EC50 (pM) [5]: 542 pM
Ratio hCT/hAmylin funct. [6]: 20.1
hAmylin-R funct. EC50 (pM) [6]: 27 pM
B2: N^ε1-[(4S)-4-carboxy-4-(19-carboxynonadecanoylamino)butanoyl]-[His14,Arg17,Pro21,Pro27,His35]-h-amylin (peptide)
peptide: K([γGlu-C20 diacid])CNTATCATQRLAHFLRHSSPNFGAIPSSTNVGSHTY-NH2
modifications: disulfide 2-7; N-terminus assumed
SMILES: CC[C@H](C)[C@H](NC(=O)[C@H](C)NC(=O)CNC(=O)[C@H](Cc1ccccc1)NC(=O)[C@H](CC(N)=O)NC(=O)[C@@H]1CCCN1C(=O)[C@H](CO)NC(=O)[C@H](CO)NC(=O)[C@H](Cc1c[nH]cn1)NC(=O)[C@H](CCCNC(=N)N)NC(=O)[C@H](CC(C)C)NC(=O)[C@H](Cc1ccccc1)NC(=O)[C@H](Cc1c[nH]cn1)NC(=O)[C@H](C)NC(=O)[C@H](CC(C)C)NC(=O)[C@H](CCCNC(=N)N)NC(=O)[C@H](CCC(N)=O)NC(=O)[C@@H](NC(=O)[C@H](C)NC(=O)[C@@H]1CSSC[C@H](NC(=O)[C@@H](N)CCCCNC(=O)CC[C@H](NC(=O)CCCCCCCCCCCCCCCCCCC(=O)O)C(=O)O)C(=O)N[C@@H](CC(N)=O)C(=O)N[C@@H]([C@@H](C)O)C(=O)N[C@@H](C)C(=O)N[C@@H]([C@@H](C)O)C(=O)N1)[C@@H](C)O)C(=O)N1CCC[C@H]1C(=O)N[C@@H](CO)C(=O)N[C@@H](CO)C(=O)N[C@H](C(=O)N[C@@H](CC(N)=O)C(=O)N[C@H](C(=O)NCC(=O)N[C@@H](CO)C(=O)N[C@@H](Cc1c[nH]cn1)C(=O)N[C@H](C(=O)N[C@@H](Cc1ccc(O)cc1)C(N)=O)[C@@H](C)O)C(C)C)[C@@H](C)O
notes: also called compound 66

hCTR funct. EC50 (pM) [1]: 1450 pM
hAmylin-R funct. EC50 (pM) [2]: 101 pM
IC50 [3]: 0.179 nM
IC50 [4]: 0.179 nM
hCTR funct. EC50 (pM) [5]: 1450 pM
hAmylin-R funct. EC50 (pM) [6]: 101 pM
B3: N^ε1-[(4S)-4-carboxy-4-(19-carboxynonadecanoylamino)butanoyl]-[Glu14,Arg17,Pro21,Pro27,Pro34,His35]-h-amylin (peptide)
peptide: K([γGlu-C20 diacid])CNTATCATQRLAEFLRHSSPNFGAIPSSTNVGPHTY-NH2
modifications: disulfide 2-7

hCTR funct. EC50 (pM) [1]: 1030 pM
Ratio hCT/hAmylin funct. [2]: 21.9
hAmylin-R funct. EC50 (pM) [2]: 47 pM
IC50 [3]: 0.088 nM
IC50 [4]: 0.088 nM
hCTR funct. EC50 (pM) [5]: 1030 pM
Ratio hCT/hAmylin funct. [6]: 21.9
hAmylin-R funct. EC50 (pM) [6]: 47 pM
B4: N^ε1-[2-[2-[2-[[(4S)-4-carboxy-4-(19-carboxynonadecanoylamino)butanoyl]amino]ethoxy]ethoxy]acetyl]-[Arg17,Pro21,Pro27,Pro34,His35]-h-amylin (peptide)
peptide: K([AEEA-γGlu-C20 diacid])CNTATCATQRLANFLRHSSPNFGAIPSSTNVGPHTY-NH2
modifications: disulfide 2-7; N-terminus assumed
SMILES: CC[C@H](C)[C@H](NC(=O)[C@H](C)NC(=O)CNC(=O)[C@H](Cc1ccccc1)NC(=O)[C@H](CC(N)=O)NC(=O)[C@@H]1CCCN1C(=O)[C@H](CO)NC(=O)[C@H](CO)NC(=O)[C@H](Cc1c[nH]cn1)NC(=O)[C@H](CCCNC(=N)N)NC(=O)[C@H](CC(C)C)NC(=O)[C@H](Cc1ccccc1)NC(=O)[C@H](CC(N)=O)NC(=O)[C@H](C)NC(=O)[C@H](CC(C)C)NC(=O)[C@H](CCCNC(=N)N)NC(=O)[C@H](CCC(N)=O)NC(=O)[C@@H](NC(=O)[C@H](C)NC(=O)[C@@H]1CSSC[C@H](NC(=O)[C@@H](N)CCCCNC(=O)COCCOCCNC(=O)CC[C@H](NC(=O)CCCCCCCCCCCCCCCCCCC(=O)O)C(=O)O)C(=O)N[C@@H](CC(N)=O)C(=O)N[C@@H]([C@@H](C)O)C(=O)N[C@@H](C)C(=O)N[C@@H]([C@@H](C)O)C(=O)N1)[C@@H](C)O)C(=O)N1CCC[C@H]1C(=O)N[C@@H](CO)C(=O)N[C@@H](CO)C(=O)N[C@H](C(=O)N[C@@H](CC(N)=O)C(=O)N[C@H](C(=O)NCC(=O)N1CCC[C@H]1C(=O)N[C@@H](Cc1c[nH]cn1)C(=O)N[C@H](C(=O)N[C@@H](Cc1ccc(O)cc1)C(N)=O)[C@@H](C)O)C(C)C)[C@@H](C)O
notes: also called compound 58

hCTR funct. EC50 (pM) [1]: 5360 pM
Ratio hCT/hAmylin funct. [2]: 15.3
hAmylin-R funct. EC50 (pM) [2]: 351 pM
IC50 [3]: 0.695 nM
IC50 [4]: 0.695 nM
hCTR funct. EC50 (pM) [5]: 5360 pM
Ratio hCT/hAmylin funct. [6]: 15.3
hAmylin-R funct. EC50 (pM) [6]: 351 pM
B5: N^ε1-[(4S)-4-carboxy-4-(19-carboxynonadecanoylamino)butanoyl]-[Arg17,Pro21,Pro27,His35]-h-amylin (peptide)
peptide: K([γGlu-C20 diacid])CNTATCATQRLANFLRHSSPNFGAIPSSTNVGSHTY-NH2
modifications: disulfide 2-7; N-terminus assumed
SMILES: CC[C@H](C)[C@H](NC(=O)[C@H](C)NC(=O)CNC(=O)[C@H](Cc1ccccc1)NC(=O)[C@H](CC(N)=O)NC(=O)[C@@H]1CCCN1C(=O)[C@H](CO)NC(=O)[C@H](CO)NC(=O)[C@H](Cc1c[nH]cn1)NC(=O)[C@H](CCCNC(=N)N)NC(=O)[C@H](CC(C)C)NC(=O)[C@H](Cc1ccccc1)NC(=O)[C@H](CC(N)=O)NC(=O)[C@H](C)NC(=O)[C@H](CC(C)C)NC(=O)[C@H](CCCNC(=N)N)NC(=O)[C@H](CCC(N)=O)NC(=O)[C@@H](NC(=O)[C@H](C)NC(=O)[C@@H]1CSSC[C@H](NC(=O)[C@@H](N)CCCCNC(=O)CC[C@H](NC(=O)CCCCCCCCCCCCCCCCCCC(=O)O)C(=O)O)C(=O)N[C@@H](CC(N)=O)C(=O)N[C@@H]([C@@H](C)O)C(=O)N[C@@H](C)C(=O)N[C@@H]([C@@H](C)O)C(=O)N1)[C@@H](C)O)C(=O)N1CCC[C@H]1C(=O)N[C@@H](CO)C(=O)N[C@@H](CO)C(=O)N[C@H](C(=O)N[C@@H](CC(N)=O)C(=O)N[C@H](C(=O)NCC(=O)N[C@@H](CO)C(=O)N[C@@H](Cc1c[nH]cn1)C(=O)N[C@H](C(=O)N[C@@H](Cc1ccc(O)cc1)C(N)=O)[C@@H](C)O)C(C)C)[C@@H](C)O
notes: also called compound 60

hCTR funct. EC50 (pM) [1]: 2830 pM
hAmylin-R funct. EC50 (pM) [2]: 172 pM
IC50 [3]: 0.377 nM
IC50 [4]: 0.377 nM
hCTR funct. EC50 (pM) [5]: 2830 pM
hAmylin-R funct. EC50 (pM) [6]: 172 pM
B6: N^ε1-[(4S)-4-carboxy-4-[[(4S)-4-carboxy-4-(19-carboxynonadecanoylamino)butanoyl]amino]butanoyl]-[Glu14,Arg17,Pro21,Pro27,Pro34,His35]-h-amylin (peptide)
peptide: K([γGlu-γGlu-C20 diacid])CNTATCATQRLAEFLRHSSPNFGAIPSSTNVGPHTY-NH2
modifications: disulfide 2-7 (inferred)
